Results taken from publication doi:10.1101/2021.12.29.474488 (bioRxiv, 2021).

Assays:
[1] = target: MgtE T336C/L421C mutant lacking the N domain (T. thermophilus) (UniProt Q5SMG8); assay: cross-linking
crystal structure = target: the molecule itself; assay: crystal structure

stoichiometry N [1] | Molecule | binding result (crystal structure)
2 | MgtE T336C/L421C mutant lacking the N domain (from UniProt Q5SMG8 130-450) (domain or fragment) | 
 | MgtE transmembrane (TM) domain from Thermus thermophilus (domain or fragment, T. thermophilus, UniProt Q5SMG8 268-450, looked up) VPDLVYSEAGPVALWLARVRWLVILILTGMVTSSILQGFESVLEAVTALAFYVPVLLGTGGNTGNQSATLIIRALATRDLDLRDWRRVFLKEMGVGLLLGLTLSFLLVGKVYWDGHPLLLPVVGVSLVLIVFFANLVGAMLPFLLRRLGVDPALVSNPLVATLSDVTGLLIYLSVARLLLEAV | binds
